# Assay results reported in PMC6422423, “Constitutively active BRS3 is a genuinely orphan GPCR in placental mammals” (PLoS Biology, 2019).
# Where no end group is shown, it is not given here.
# Columns and labels:
# [1] = biological target: chicken bombesin receptor subtype-3 (chicken (Gallus gallus)); experiment: radioligand binding; displacement of 50 pM [125I]-Tyr42-GRP by unlabeled peptide on disaggregated transfected HEK293 cells; 1 h at 21°C; 24.5 mM HEPES pH 7.4, 98 mM NaCl; bound tracer separated by centrifugation
# [2] = biological target: turtle bombesin receptor subtype-3 (turtle (Chrysemys picta)); experiment: as above
# [3] = biological target: aardvark bombesin receptor subtype-3 (aardvark (Orycteropus afer)); experiment: as above
# [4] = biological target: spotted gar bombesin receptor subtype-3 (spotted gar (Lepisosteus oculatus)); experiment: as above
# [5] = biological target: chicken bombesin receptor subtype-3 (chicken (Gallus gallus)); experiment: radioligand binding; displacement of 50 pM [125I]-Tyr-NMB by unlabeled peptide on disaggregated transfected HEK293 cells; 1 h at 21°C; 24.5 mM HEPES pH 7.4, 98 mM NaCl; bound tracer separated by centrifugation
# [6] = biological target: turtle bombesin receptor subtype-3 (turtle (Chrysemys picta)); experiment: as above
# [7] = biological target: spotted gar bombesin receptor subtype-3 (spotted gar (Lepisosteus oculatus)); experiment: as above
# Chain of turtle bombesin receptor subtype-3 (turtle (Chrysemys picta)) (main, as listed by the source): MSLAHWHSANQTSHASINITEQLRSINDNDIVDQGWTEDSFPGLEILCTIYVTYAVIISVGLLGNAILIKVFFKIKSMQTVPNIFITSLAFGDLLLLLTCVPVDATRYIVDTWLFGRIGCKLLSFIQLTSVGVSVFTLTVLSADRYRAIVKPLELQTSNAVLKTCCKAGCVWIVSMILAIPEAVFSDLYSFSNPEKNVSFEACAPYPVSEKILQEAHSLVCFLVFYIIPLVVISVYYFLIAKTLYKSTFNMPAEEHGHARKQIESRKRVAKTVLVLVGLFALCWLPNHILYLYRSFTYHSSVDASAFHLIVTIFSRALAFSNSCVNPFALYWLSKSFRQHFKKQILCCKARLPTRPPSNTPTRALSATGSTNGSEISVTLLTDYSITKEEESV
# Chain of spotted gar bombesin receptor subtype-3 (spotted gar (Lepisosteus oculatus)) (main, as listed by the source): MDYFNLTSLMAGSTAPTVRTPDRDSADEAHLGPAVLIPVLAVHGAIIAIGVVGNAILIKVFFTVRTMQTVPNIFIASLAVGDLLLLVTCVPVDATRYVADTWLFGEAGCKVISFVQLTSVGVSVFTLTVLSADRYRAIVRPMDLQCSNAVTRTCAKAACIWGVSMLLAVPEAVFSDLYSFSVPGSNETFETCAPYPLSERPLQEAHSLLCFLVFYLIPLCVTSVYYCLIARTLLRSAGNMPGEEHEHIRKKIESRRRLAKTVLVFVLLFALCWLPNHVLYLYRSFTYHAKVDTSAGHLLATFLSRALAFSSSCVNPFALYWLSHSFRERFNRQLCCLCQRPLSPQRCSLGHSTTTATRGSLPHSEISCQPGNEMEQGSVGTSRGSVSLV
# Chain of aardvark bombesin receptor subtype-3 (aardvark (Orycteropus afer)) (P32247 other isoform, or with tags, fused parts or gaps): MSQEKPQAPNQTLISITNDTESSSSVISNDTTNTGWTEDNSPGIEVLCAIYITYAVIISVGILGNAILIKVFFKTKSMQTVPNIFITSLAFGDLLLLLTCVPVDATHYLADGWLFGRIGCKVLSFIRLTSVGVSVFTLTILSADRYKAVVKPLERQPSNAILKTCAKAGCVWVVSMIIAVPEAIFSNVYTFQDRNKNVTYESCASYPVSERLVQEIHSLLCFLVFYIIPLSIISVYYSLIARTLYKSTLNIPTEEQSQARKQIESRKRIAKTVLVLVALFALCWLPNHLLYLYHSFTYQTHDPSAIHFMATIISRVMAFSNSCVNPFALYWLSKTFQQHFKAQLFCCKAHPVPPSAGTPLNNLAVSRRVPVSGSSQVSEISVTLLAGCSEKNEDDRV
binder,measurement,setting,value
"APLQPGGSPALTKIYPRGSHWAVGHLM (ends and bridges not checked) [gastrin-releasing peptide, unlabeled ligand peptide of the radioligand binding assays]",IC50,[1],0.15 nM
same,IC50,[2],0.14 nM
same,Ki,[3],> 1000 nM
same,IC50,[4],0.17 nM
same,IC50,[5],0.18 nM
same,IC50,[6],0.28 nM
same,IC50,[7],0.54 nM
